Test results: US8092810B2, “Use of polypeptides having antimicrobial activity” (Novozymes A/S, priority 2006, dated 2012)

Legend:
[1] = tested on: gram-positive bacterial strains; experiment: MIC assay, summary over gram-positive strains; assay type: cell-based; details: a number of gram-positive strains, with the exception of certain strains of Staphylococcus
Protocol: (§1) Briefly, the MIC was determined by microbroth dilution assay in a 96 well plate. 4-5 colonies of each bacterium tested were added to 5 ml of MHB, placed in a 35° C. shaker until the OD 600 nm reached 0.08-0.10. The inoculum was diluted 1:100 and 50 microliters were added to each well which contained 50 microliters of serial two fold dilutions of Lento, vancomycin or ciprofloxacin. Each concentration of antibiotic or Lento was tested in duplicate. The plate was placed at 35° C. overnight. MICs were determined after 24 hours incubation and defined by the well containing the lowest amount of antibiotic with no visible growth.

[2] = tested on: Micrococcus luteus ATCC 9341; experiment: MBC determination; assay type: cell-based; details: concentration that kills 99.9%
Protocol: as §1
(§2) MBCs were determined as described by the NCCLS guidelines (cited above).

[3] = tested on: Enterococcus faecium ATCC 51559; experiment: MBC determination; assay type: cell-based; details: concentration that kills 99.9%
Protocol: as §1, §2

[4] = tested on: Staphylococcus aureus ATCC 29737; experiment: MBC determination; assay type: cell-based; details: concentration that kills 99.9%
Protocol: as §1, §2

[5] = tested on: Enterococcus faecalis (VRE) ATCC 51299; experiment: MBC determination; assay type: cell-based; details: concentration that kills 99.9%
Protocol: as §1, §2

[6] = Thermostability by Differential Scanning calorimetry (DSC); assay type: physicochemical
Protocol: Differential Scanning calorimetry (DSC) was used to determine temperature stability of the Lento protein at pH 2.5, 4.0 and 7.0. Purified Lento in a concentration of about 2 mg/ml was dialysed over night at 4° C. against appropriate buffer and run on a VP-DSC instrument (MicroCal) with a constant scan rate of 1.5° C./min from 20 to 90° C. Data-handling was performed using the MicroCal Origin software (version 4.10), and denaturation temperature was defined as temperature at the apex of the enthalpy peak. […] In 10 mM sodium acetate, 50 mM NaCl, pH 4.0, Lento denatured at 69° C., and in 10 mM sodium phosphate, 50 mM NaCl, pH 7.0 the denaturation temperature was 60° C.

[7] = tested on: gram-negative bacterial strains; experiment: MIC assay, summary over gram-negative strains; assay type: cell-based; details: gram-negative bacterial strains of Table 1
Protocol: as §1

[8] = tested on: Burkholderia cepacia ATCC 25416; experiment: MIC broth microdilution; assay type: cell-based; details: Burkholderia cepacia ATCC 25416, Gram −; MHB, 35° C., 24 hours
[9] = tested on: Bacillus cereus ATCC 4342; experiment: MBC determination; assay type: cell-based; details: concentration that kills 99.9%
Protocol: Minimal inhibitory concentrations (MIC) and minimal bactericidal concentrations (MBC) were determined by broth microdilution in MHB as described by the NCCLS (National Committee for Clinical Laboratory Standards, in: Methods for Determining Bactericidal Activity of Antimicrobial Agents; Approved Guideline. National Committee for Clinical Laboratory Standards (M26-A), Vol. 19, 1999).
Briefly, the MIC was determined by microbroth dilution assay in a 96 well plate. 4-5 colonies of each bacterium tested were added to 5 ml of MHB, placed in a 35° C. shaker until the OD 600 nm reached 0.08-0.10. […] MICs were determined after 24 hours incubation and defined by the well containing the lowest amount of antibiotic with no visible growth.
To determine the MBC, 10 microliters from each well with no growth was plated in duplicate and allowed to grow overnight on Mueller-Hinton agar (Difco Catalog number 225250, Becton Dickinson and Company, Sparks, Md., US; 2.0 g beef extract powder, 17.5 g acid digest of casein, 1.5 g starch, 17 g agar—per 1000 ml of water). The MBC is based on the inoculum concentration, which was determined by plating in duplicate 50 microliters of 10^−2, 10^−3, and 10^−4 of the inoculum used for MICs. MBCs were determined as described by the NCCLS guidelines (cited above). […]

[10] = tested on: all bacteria tested (Table 2); experiment: MBC versus MIC, bactericidal classification; assay type: cell-based; details: all bacteria tested with the exception of E. faecium ATCC 51559
Protocol: To determine the MBC, 10 microliters from each well with no growth was plated in duplicate and allowed to grow overnight on Mueller-Hinton agar (Difco Catalog number 225250, Becton Dickinson and Company, Sparks, Md., US; 2.0 g beef extract powder, 17.5 g acid digest of casein, 1.5 g starch, 17 g agar—per 1000 ml of water). The MBC is based on the inoculum concentration, which was determined by plating in duplicate 50 microliters of 10^−2, 10^−3, and 10^−4 of the inoculum used for MICs. MBCs were determined as described by the NCCLS guidelines (cited above). The MBC is the concentration of the tested compound that kills 99.9% of the microorganism inoculated into the well.
Based on this definition, Lento is bactericidal against all bacteria tested with the exception of E. faecium ATCC 51559.

[11] = tested on: Staphylococcus epidermidis ATCC 12228; experiment: MIC broth microdilution; assay type: cell-based; details: Staphylococcus epidermidis ATCC 12228, Gram +; MHB, 35° C., 24 hours
Protocol: as §1

[12] = tested on: Corynebacterium jeikeium ATCC 43216; experiment: MIC broth microdilution; assay type: cell-based; details: Corynebacterium jeikeium ATCC 43216, Gram +; MHB, 35° C., 24 hours
Protocol: as §1

[13] = tested on: Shigella dysenteriae ATCC 11835; experiment: MIC broth microdilution; assay type: cell-based; details: Shigella dysenteriae ATCC 11835, Gram −; MHB, 35° C., 24 hours
Protocol: as §1

[14] = tested on: Staphylococcus aureus ATCC 29213; experiment: MIC broth microdilution; assay type: cell-based; details: Staphylococcus aureus ATCC 29213, Gram +; MHB, 35° C., 24 hours
Protocol: as §1

[15] = tested on: Micrococcus luteus ATCC 9341; experiment: MIC broth microdilution; assay type: cell-based
Protocol: as §1

[16] = tested on: Streptococcus pneumoniae ATCC 49619; experiment: MIC broth microdilution; assay type: cell-based; details: Streptococcus pneumoniae ATCC 49619, Gram +; MHB, 35° C., 24 hours
Protocol: as §1

[17] = tested on: Bacillus cereus ATCC 4342; experiment: MIC broth microdilution; assay type: cell-based
Protocol: as §1

[18] = tested on: Corynebacterium jeikeium ATCC 43734; experiment: MIC broth microdilution; assay type: cell-based; details: Corynebacterium jeikeium ATCC 43734, Gram +; MHB, 35° C., 24 hours
Protocol: as §1

[19] = tested on: Enterococcus faecium ATCC 51559; experiment: MIC broth microdilution; assay type: cell-based
Protocol: as §1

[20] = tested on: Streptococcus pneumoniae (TCRSP) ATCC 700902; experiment: MIC broth microdilution; assay type: cell-based; details: Streptococcus pneumoniae (TCRSP) ATCC 700902, Gram +; MHB, 35° C., 24 hours
Protocol: as §1

[21] = tested on: Streptococcus pneumoniae ATCC 700676; experiment: MIC broth microdilution; assay type: cell-based; details: Streptococcus pneumoniae ATCC 700676, Gram +; MHB, 35° C., 24 hours
Protocol: as §1

[22] = tested on: Staphylococcus aureus ATCC 29737; experiment: MIC broth microdilution; assay type: cell-based
Protocol: as §1

[23] = tested on: Streptococcus pneumoniae (PSRSP) ATCC 700671; experiment: MIC broth microdilution; assay type: cell-based; details: Streptococcus pneumoniae (PSRSP) ATCC 700671, Gram +; MHB, 35° C., 24 hours
Protocol: as §1

[24] = tested on: Enterococcus faecalis (VRE) ATCC 51299; experiment: MIC broth microdilution; assay type: cell-based
Protocol: as §1

B1: Lento: Bacillus licheniformis polypeptide having amino acids 1-85 of SEQ ID NO: 2, purified from ATCC 14580 fermentation broth (protein)
chain: MKNHLYEKKKRKPLTRTIKATLAVLTMSIALVGGATVPSFAWVNPGYHYQYPSEGGTWRYGFVNAGLRSEYNHPTKVHGSTVQKL
modifications: Bacillus licheniformis ATCC 14580
antimicrobial effect on gram-positive bacterial strains [1]: pronounced antimicrobial effect | MBC [2]: 8 microgram/ml | MBC [3]: >64 microgram/ml | MBC [4]: 32 microgram/ml | MBC [5]: 64 microgram/ml | denaturation temperature (DSC) ([6]; 10 mM citric acid, 50 mM sodium chloride, pH 2.5): 55 °C | denaturation temperature (DSC) ([6]; 10 mM sodium acetate, 50 mM NaCl, pH 4.0): 69 °C | denaturation temperature (DSC) ([6]; 10 mM sodium phosphate, 50 mM NaCl, pH 7.0): 60 °C | antimicrobial effect on gram-negative bacterial strains [7]: uncertain if any antimicrobial effect | MIC [8]: >256 microgram/ml | MBC [9]: 1 microgram/ml | bactericidal (MBC within four fold of the MIC) [10]: bactericidal | MIC [11]: 128 microgram/ml | MIC [12]: 0.125 microgram/ml | MIC [13]: >256 microgram/ml | MIC [14]: 64 microgram/ml | MBC ([15]; Micrococcus luteus ATCC 9341, Gram +, MHB, 35° C., 24 hours): 8 microgram/ml | MBC ([15]; Table 2 (MBC results), Micrococcus luteus ATCC 9341): 8 microgram/ml | MIC [16]: 1-2 microgram/ml | MIC ([17]; Bacillus cereus ATCC 4342, Gram +, MHB, 35° C., 24 hours): 0.5-1 microgram/ml | MIC ([17]; Table 2 (MBC results), Bacillus cereus ATCC 4342): 1 microgram/ml | MIC [18]: 2 microgram/ml | MIC ([19]; Enterococcus faecium ATCC 51559, Gram +, MHB, 35° C., 24 hours): 4 microgram/ml | MIC ([19]; Table 2 (MBC results), Enterococcus faecium ATCC 51559): 4 microgram/ml | MIC [20]: 4-8 microgram/ml | MIC [21]: 4 microgram/ml | MBC ([22]; Staphylococcus aureus ATCC 29737, Gram +, MHB, 35° C., 24 hours): 8-32 microgram/ml | MBC ([22]; Table 2 (MBC results), Staphylococcus aureus ATCC 29737): 32 microgram/ml | MIC [23]: 2 microgram/ml | MIC ([24]; Enterococcus faecalis (VRE) ATCC 51299, Gram +, MHB, 35° C., 24 hours): 8 microgram/ml | MIC ([24]; Table 2 (MBC results), Enterococcus faecalis (VRE) ATCC 51299): 64 microgram/ml
